Here are results for twelve compounds from paper PMC3817844 (Angewandte Chemie (International ed. in English), 2013).

The target in the first data set is Glu92 (UniProt position 93, EAFRVEDKDGN). Kind of data set: kinetics. To be noted: Ca2+-bound (active) protein; the protein is inactive without Ca2+.
The term pKa denotes the negative logarithm of the acid dissociation constant. “CaM F92E 5R (round 5 variant), affinity tag removed (Gallus gallus; F92E;M144R;H107I;L112R;I85L;A128T)” gave a pKa of 6.47±0.03.

The compound “CaM F92E 5R (round 5 variant), with affinity tag (Gallus gallus; F92E;M144R;H107I;L112R;I85L;A128T)” yielded a pKa of 6.60±0.02.

“CaM F92E (full-length calmodulin F92E) (Gallus gallus; F92E)” yielded a pKa of 6.98±0.05. Consider “CaM F92E round 1 variant (F92E/M144R) (Gallus gallus; F92E;M144R)”, for which the pKa came out at 7.21±0.06.

With “CaM F92E round 2 variant (F92E/M144R/H107I), tag removed (Gallus gallus; F92E;M144R;H107I)”, the pKa is listed as 6.73±0.03. On the same count and under the same terms, next, “CaM F92E round 3 variant (F92E/M144R/H107I/L112R) (Gallus gallus; F92E;M144R;H107I;L112R)”: 6.70±0.03; “CaM F92E round 4 variant (F92E/M144R/H107I/L112R/I85L) (Gallus gallus; F92E;M144R;H107I;L112R;I85L)”: 6.93±0.03. Same read-out and setting: next, “CaM F92E round 6 variant (Gallus gallus; F92E;M144R;H107I;L112R;I85L;A128T;M124L)”: 6.67±0.01.

Staying with this data set, now noted: Ca2+-bound (active) protein; the protein is inactive without Ca2+; cited from earlier work.
Regarding “AlleyCat (calmodulin C-terminal domain F92E) (Gallus gallus; F92E)”, the pKa is listed as 6.9±0.1.

The target of the next data set is Glu92 (UniProt position 93, EQFRVEDKDGN). Kind of data set: kinetics. To be noted: Ca2+-bound (active) protein; the protein is inactive without Ca2+.
For “AlleyCat7 (calmodulin C-terminal domain with round 7 mutations) (Gallus gallus; F92E;M144R;H107I;L112R;I85L;A128T;M124L;A88Q)”, the pKa is recorded as 6.39±0.02. The same measure, in the same setting: next, “CaM F92E round 7 variant, tag removed (Gallus gallus; F92E;M144R;H107I;L112R;I85L;A128T;M124L;A88Q)”: 6.43±0.02.

A further data set deals with AlleyCat; AlleyCat7 (Gallus gallus, UniProt P62149, A129T/A89Q/F93E/H108I/I86L/L113R/M125L/M145R). Description: inhibition of Kemp elimination.
Settings: not given
The format is biochemical.
What is called Ki is the equilibrium dissociation constant of an inhibitor or competing ligand from its target. Read a high Ki as lower affinity. `O=[N+]([O-])c1ccc2[nH]nnc2c1` [5-NBT, 5-nitro-benzotriazole] had a Ki of 18 µM.
